According to article PMC2757237:

Legend:
Assay in all cases: co-IP
[1] = target: PfGAPM1-HA (P. falciparum) (UniProt Q8IE80)
[2] = target: PfGAPM2-GFP (P. falciparum) (UniProt Q8IFN1)
[3] = target: PfGAPM3-HA (P. falciparum)

Substance	percent of the total ALV in the sample that was precipitated [1] [%]	percent of the total ALV in the sample that was precipitated [2] [%]	percent of the total ALV in the sample that was precipitated [3] [%]	percent of the protein in the sample that was precipitated [1] [%]	percent of the protein in the sample that was precipitated [2] [%]	percent of the protein in the sample that was precipitated [3] [%]
PfALV4 (natural protein)	17	26	16	–	–	–
PfGAP50 (natural protein)	–	–	–	< 10	< 10	< 10
PfGAP45 (from UniProt Q8I5I8 1-204) (natural protein)	–	–	–	–	–	< 10
